Measurements from patent US20200024322A1 (Eli Lilly, published 2020).
Numbered stars: 1 amine (or outer) side, 2 acyl side, 3 side chain; on linkers, the order of the positions; unused ones are H or OH. Square brackets hold non-standard residues; d marks the D form. Side chains are listed from the residue outwards. Ends that are not written are not given here. * marks the point of attachment. C20 diacid = O=C(O)CCCCCCCCCCCCCCCCCCC(=O)*; γGlu = O=C(O)[C@H](CCC(=O)[*:2])N[*:1]; AEEA = NCCOCCOCC(=O)O; Aib = CC(C)(N)C(=O)O

B1: Example 36 (peptide)
peptide: Y[Aib]EGTFTSDYSILLDKIAQ[Aib]AFIEYLK([AEEA-AEEA-γGlu-C20 diacid])EGGPSSGAPPPS-NH2
modifications: N-terminus assumed
SMILES: CC[C@H](C)[C@H](NC(=O)[C@H](CCCCN)NC(=O)[C@H](CC(=O)O)NC(=O)[C@H](CC(C)C)NC(=O)[C@H](CC(C)C)NC(=O)[C@@H](NC(=O)[C@H](CO)NC(=O)[C@H](Cc1ccc(O)cc1)NC(=O)[C@H](CC(=O)O)NC(=O)[C@H](CO)NC(=O)[C@@H](NC(=O)[C@H](Cc1ccccc1)NC(=O)[C@@H](NC(=O)CNC(=O)[C@H](CCC(=O)O)NC(=O)C(C)(C)NC(=O)[C@@H](N)Cc1ccc(O)cc1)[C@@H](C)O)[C@@H](C)O)[C@@H](C)CC)C(=O)N[C@@H](C)C(=O)N[C@@H](CCC(N)=O)C(=O)NC(C)(C)C(=O)N[C@@H](C)C(=O)N[C@@H](Cc1ccccc1)C(=O)N[C@H](C(=O)N[C@@H](CCC(=O)O)C(=O)N[C@@H](Cc1ccc(O)cc1)C(=O)N[C@@H](CC(C)C)C(=O)N[C@@H](CCCCNC(=O)COCCOCCNC(=O)COCCOCCNC(=O)CC[C@H](NC(=O)CCCCCCCCCCCCCCCCCCC(=O)O)C(=O)O)C(=O)N[C@@H](CCC(=O)O)C(=O)NCC(=O)NCC(=O)N1CCC[C@H]1C(=O)N[C@@H](CO)C(=O)N[C@@H](CO)C(=O)NCC(=O)N[C@@H](C)C(=O)N1CCC[C@H]1C(=O)N1CCC[C@H]1C(=O)N1CCC[C@H]1C(=O)N[C@@H](CO)C(N)=O)[C@@H](C)CC
B2: Example 39 (peptide)
peptide: Y[Aib]EGTFTSDYSILLDKIAQ[Aib]AFIEYLIEGK([AEEA-AEEA-γGlu-C20 diacid])PSSGAPPPS-NH2
modifications: N-terminus assumed
SMILES: CC[C@H](C)[C@H](NC(=O)[C@H](CCCCN)NC(=O)[C@H](CC(=O)O)NC(=O)[C@H](CC(C)C)NC(=O)[C@H](CC(C)C)NC(=O)[C@@H](NC(=O)[C@H](CO)NC(=O)[C@H](Cc1ccc(O)cc1)NC(=O)[C@H](CC(=O)O)NC(=O)[C@H](CO)NC(=O)[C@@H](NC(=O)[C@H](Cc1ccccc1)NC(=O)[C@@H](NC(=O)CNC(=O)[C@H](CCC(=O)O)NC(=O)C(C)(C)NC(=O)[C@@H](N)Cc1ccc(O)cc1)[C@@H](C)O)[C@@H](C)O)[C@@H](C)CC)C(=O)N[C@@H](C)C(=O)N[C@@H](CCC(N)=O)C(=O)NC(C)(C)C(=O)N[C@@H](C)C(=O)N[C@@H](Cc1ccccc1)C(=O)N[C@H](C(=O)N[C@@H](CCC(=O)O)C(=O)N[C@@H](Cc1ccc(O)cc1)C(=O)N[C@@H](CC(C)C)C(=O)N[C@H](C(=O)N[C@@H](CCC(=O)O)C(=O)NCC(=O)N[C@@H](CCCCNC(=O)COCCOCCNC(=O)COCCOCCNC(=O)CC[C@H](NC(=O)CCCCCCCCCCCCCCCCCCC(=O)O)C(=O)O)C(=O)N1CCC[C@H]1C(=O)N[C@@H](CO)C(=O)N[C@@H](CO)C(=O)NCC(=O)N[C@@H](C)C(=O)N1CCC[C@H]1C(=O)N1CCC[C@H]1C(=O)N1CCC[C@H]1C(=O)N[C@@H](CO)C(N)=O)[C@@H](C)CC)[C@@H](C)CC
B3: Example 37 (peptide)
peptide: Y[Aib]EGTFTSDYSILLDKIAQ[Aib]AFIEYLIK([AEEA-AEEA-γGlu-C20 diacid])GGPSSGAPPPS-NH2
modifications: N-terminus assumed
SMILES: CC[C@H](C)[C@H](NC(=O)[C@H](CCCCN)NC(=O)[C@H](CC(=O)O)NC(=O)[C@H](CC(C)C)NC(=O)[C@H](CC(C)C)NC(=O)[C@@H](NC(=O)[C@H](CO)NC(=O)[C@H](Cc1ccc(O)cc1)NC(=O)[C@H](CC(=O)O)NC(=O)[C@H](CO)NC(=O)[C@@H](NC(=O)[C@H](Cc1ccccc1)NC(=O)[C@@H](NC(=O)CNC(=O)[C@H](CCC(=O)O)NC(=O)C(C)(C)NC(=O)[C@@H](N)Cc1ccc(O)cc1)[C@@H](C)O)[C@@H](C)O)[C@@H](C)CC)C(=O)N[C@@H](C)C(=O)N[C@@H](CCC(N)=O)C(=O)NC(C)(C)C(=O)N[C@@H](C)C(=O)N[C@@H](Cc1ccccc1)C(=O)N[C@H](C(=O)N[C@@H](CCC(=O)O)C(=O)N[C@@H](Cc1ccc(O)cc1)C(=O)N[C@@H](CC(C)C)C(=O)N[C@H](C(=O)N[C@@H](CCCCNC(=O)COCCOCCNC(=O)COCCOCCNC(=O)CC[C@H](NC(=O)CCCCCCCCCCCCCCCCCCC(=O)O)C(=O)O)C(=O)NCC(=O)NCC(=O)N1CCC[C@H]1C(=O)N[C@@H](CO)C(=O)N[C@@H](CO)C(=O)NCC(=O)N[C@@H](C)C(=O)N1CCC[C@H]1C(=O)N1CCC[C@H]1C(=O)N1CCC[C@H]1C(=O)N[C@@H](CO)C(N)=O)[C@@H](C)CC)[C@@H](C)CC
B4: Example 41 (peptide)
peptide: Y[Aib]EGTFTSDYSILLDKIAQ[Aib]AFIEYLIEGGPK([AEEA-AEEA-γGlu-C20 diacid])SGAPPPS-NH2
modifications: N-terminus assumed
SMILES: CC[C@H](C)[C@H](NC(=O)[C@H](CCCCN)NC(=O)[C@H](CC(=O)O)NC(=O)[C@H](CC(C)C)NC(=O)[C@H](CC(C)C)NC(=O)[C@@H](NC(=O)[C@H](CO)NC(=O)[C@H](Cc1ccc(O)cc1)NC(=O)[C@H](CC(=O)O)NC(=O)[C@H](CO)NC(=O)[C@@H](NC(=O)[C@H](Cc1ccccc1)NC(=O)[C@@H](NC(=O)CNC(=O)[C@H](CCC(=O)O)NC(=O)C(C)(C)NC(=O)[C@@H](N)Cc1ccc(O)cc1)[C@@H](C)O)[C@@H](C)O)[C@@H](C)CC)C(=O)N[C@@H](C)C(=O)N[C@@H](CCC(N)=O)C(=O)NC(C)(C)C(=O)N[C@@H](C)C(=O)N[C@@H](Cc1ccccc1)C(=O)N[C@H](C(=O)N[C@@H](CCC(=O)O)C(=O)N[C@@H](Cc1ccc(O)cc1)C(=O)N[C@@H](CC(C)C)C(=O)N[C@H](C(=O)N[C@@H](CCC(=O)O)C(=O)NCC(=O)NCC(=O)N1CCC[C@H]1C(=O)N[C@@H](CCCCNC(=O)COCCOCCNC(=O)COCCOCCNC(=O)CC[C@H](NC(=O)CCCCCCCCCCCCCCCCCCC(=O)O)C(=O)O)C(=O)N[C@@H](CO)C(=O)NCC(=O)N[C@@H](C)C(=O)N1CCC[C@H]1C(=O)N1CCC[C@H]1C(=O)N1CCC[C@H]1C(=O)N[C@@H](CO)C(N)=O)[C@@H](C)CC)[C@@H](C)CC
B5: Example 40 (peptide)
peptide: Y[Aib]EGTFTSDYSILLDKIAQ[Aib]AFIEYLIEGGK([AEEA-AEEA-γGlu-C20 diacid])SSGAPPPS-NH2
modifications: N-terminus assumed
SMILES: CC[C@H](C)[C@H](NC(=O)[C@H](CCCCN)NC(=O)[C@H](CC(=O)O)NC(=O)[C@H](CC(C)C)NC(=O)[C@H](CC(C)C)NC(=O)[C@@H](NC(=O)[C@H](CO)NC(=O)[C@H](Cc1ccc(O)cc1)NC(=O)[C@H](CC(=O)O)NC(=O)[C@H](CO)NC(=O)[C@@H](NC(=O)[C@H](Cc1ccccc1)NC(=O)[C@@H](NC(=O)CNC(=O)[C@H](CCC(=O)O)NC(=O)C(C)(C)NC(=O)[C@@H](N)Cc1ccc(O)cc1)[C@@H](C)O)[C@@H](C)O)[C@@H](C)CC)C(=O)N[C@@H](C)C(=O)N[C@@H](CCC(N)=O)C(=O)NC(C)(C)C(=O)N[C@@H](C)C(=O)N[C@@H](Cc1ccccc1)C(=O)N[C@H](C(=O)N[C@@H](CCC(=O)O)C(=O)N[C@@H](Cc1ccc(O)cc1)C(=O)N[C@@H](CC(C)C)C(=O)N[C@H](C(=O)N[C@@H](CCC(=O)O)C(=O)NCC(=O)NCC(=O)N[C@@H](CCCCNC(=O)COCCOCCNC(=O)COCCOCCNC(=O)CC[C@H](NC(=O)CCCCCCCCCCCCCCCCCCC(=O)O)C(=O)O)C(=O)N[C@@H](CO)C(=O)N[C@@H](CO)C(=O)NCC(=O)N[C@@H](C)C(=O)N1CCC[C@H]1C(=O)N1CCC[C@H]1C(=O)N1CCC[C@H]1C(=O)N[C@@H](CO)C(N)=O)[C@@H](C)CC)[C@@H](C)CC
B6: Example 42 (peptide)
peptide: Y[Aib]EGTFTSDYSILLDKIAQ[Aib]AFIEYLIEGGPSK([AEEA-AEEA-γGlu-C20 diacid])GAPPPS-NH2
modifications: N-terminus assumed
SMILES: CC[C@H](C)[C@H](NC(=O)[C@H](CCCCN)NC(=O)[C@H](CC(=O)O)NC(=O)[C@H](CC(C)C)NC(=O)[C@H](CC(C)C)NC(=O)[C@@H](NC(=O)[C@H](CO)NC(=O)[C@H](Cc1ccc(O)cc1)NC(=O)[C@H](CC(=O)O)NC(=O)[C@H](CO)NC(=O)[C@@H](NC(=O)[C@H](Cc1ccccc1)NC(=O)[C@@H](NC(=O)CNC(=O)[C@H](CCC(=O)O)NC(=O)C(C)(C)NC(=O)[C@@H](N)Cc1ccc(O)cc1)[C@@H](C)O)[C@@H](C)O)[C@@H](C)CC)C(=O)N[C@@H](C)C(=O)N[C@@H](CCC(N)=O)C(=O)NC(C)(C)C(=O)N[C@@H](C)C(=O)N[C@@H](Cc1ccccc1)C(=O)N[C@H](C(=O)N[C@@H](CCC(=O)O)C(=O)N[C@@H](Cc1ccc(O)cc1)C(=O)N[C@@H](CC(C)C)C(=O)N[C@H](C(=O)N[C@@H](CCC(=O)O)C(=O)NCC(=O)NCC(=O)N1CCC[C@H]1C(=O)N[C@@H](CO)C(=O)N[C@@H](CCCCNC(=O)COCCOCCNC(=O)COCCOCCNC(=O)CC[C@H](NC(=O)CCCCCCCCCCCCCCCCCCC(=O)O)C(=O)O)C(=O)NCC(=O)N[C@@H](C)C(=O)N1CCC[C@H]1C(=O)N1CCC[C@H]1C(=O)N1CCC[C@H]1C(=O)N[C@@H](CO)C(N)=O)[C@@H](C)CC)[C@@H](C)CC

Tests used:
human GLP-1 receptor = molecular target: T1, human GLP-1 receptor (human, UniProt P43220 24-463); assay: SPA, [125I]-GLP-1 displacement, hGLP-1R membranes
T1 construct: whole, on cells; Used as crude membranes of stably transfected HEK293 cells; also called hGLP1R; hGLP-1R

human glucagon receptor = molecular target: T2, human glucagon receptor (human, UniProt P47871 26-477); assay: SPA, [125I]-Gcg displacement, hGcgR membranes
T2 construct: whole, on cells; Used as crude membranes of stably transfected HEK293 cells; also called hGcgR; hGLcgR

human GIP receptor = molecular target: T3, human GIP receptor (human, UniProt P48546 22-466); assay: SPA, [125I]-GIP displacement, hGIPR membranes
T3 construct: whole, on cells; Used as crude membranes of stably transfected CHO cells; also called hGIPR
T3 sequence (looked up): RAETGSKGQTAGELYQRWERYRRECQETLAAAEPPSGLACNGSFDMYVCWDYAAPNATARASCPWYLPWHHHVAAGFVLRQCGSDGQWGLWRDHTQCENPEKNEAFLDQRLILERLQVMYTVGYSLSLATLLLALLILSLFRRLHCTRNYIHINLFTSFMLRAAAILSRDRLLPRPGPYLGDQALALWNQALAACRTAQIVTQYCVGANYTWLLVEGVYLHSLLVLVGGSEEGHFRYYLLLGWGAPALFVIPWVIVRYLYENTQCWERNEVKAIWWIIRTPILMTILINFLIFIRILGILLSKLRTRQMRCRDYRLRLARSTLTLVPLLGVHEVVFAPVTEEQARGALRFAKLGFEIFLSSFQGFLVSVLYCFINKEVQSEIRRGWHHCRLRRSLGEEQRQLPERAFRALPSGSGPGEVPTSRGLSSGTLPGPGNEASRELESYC

T2 sequence (P47871 26-477): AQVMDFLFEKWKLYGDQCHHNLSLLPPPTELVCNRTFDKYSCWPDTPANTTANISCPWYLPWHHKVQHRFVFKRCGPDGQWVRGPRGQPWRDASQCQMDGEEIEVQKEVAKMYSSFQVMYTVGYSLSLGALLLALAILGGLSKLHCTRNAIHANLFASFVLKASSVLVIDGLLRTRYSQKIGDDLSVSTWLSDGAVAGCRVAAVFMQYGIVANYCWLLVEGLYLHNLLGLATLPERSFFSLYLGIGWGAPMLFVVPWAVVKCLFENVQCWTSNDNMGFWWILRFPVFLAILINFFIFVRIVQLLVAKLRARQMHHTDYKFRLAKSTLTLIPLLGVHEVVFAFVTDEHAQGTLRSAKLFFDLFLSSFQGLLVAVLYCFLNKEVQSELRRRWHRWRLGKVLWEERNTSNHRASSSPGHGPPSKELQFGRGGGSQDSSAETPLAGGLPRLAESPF

Binder | Ki (human GLP-1 receptor) [nM] | Ki (human glucagon receptor) [nM] | Ki (human GIP receptor) [nM]
B1 | 16.4 | 413 | 0.141
B2 | 16.8 | 161 | 0.0499
B3 | 3.84 | 255 | 0.0523
B4 | 13.4 | 165 | 0.0551
B5 | 7.56 | 150 | 0.0345
B6 | 13.2 | 160 | 0.0514
